The text below walks through data of patent publication US20220242943A1 (Regeneron, published 2022).

Sequences and labels used below:
B3: mouse PDGF-BB (ligand, UniProt P31240 82-190, looked up)
chain: SLGSLAAAEPAVIAECKTRTEVFQISRNLIDRTNANFLVWPPCVEVQRCSGCCNNRNVQCRASQVQMRPVQVRKIEIVRKKPIFKKATVTLEDHLACKCETIVTPRPVT
B4: Sino Biologics cynomolgus PDGF-BB Fc tag (Fc fusion, cynomolgus monkey, not shown: a dimerising Fc or GST)
chain: SLGSLTVAEPAMIAECKTRTEVFEISRRLIDRTNANFLVWPPCVEVQRCSGCCNNRNVQCRPTQVQLRPVQVRKIEIVRKKPIFKKATVTLEDHLACKCETVAAARPVT
B5: cynomolgus monkey (Macaca fascicularis) PDGF-BB (ligand)
chain: SLGSLTVAEPAMIAECKTRTEVFEISRRLIDRTNANFLVWPPCVEVQRCSGCCNNRNVQCRPTQVQLRPVQVRKIEIVRKKPIFKKATVTLEDHLACKCETVAAARPVT

Like-named read-outs stand apart in the source and are kept apart here.

In assay [1] the target is B3. The experiment in a line: cell-based or functional assay.
Assay [2] has as its target B5. Put plainly: cell-based or functional assay.
In assay [3] the target is T1, human PDGF-AB (human, UniProt P04085 87-211). The experiment in a line: cell-based or functional assay.
The target in assay [4] is T1, human PDGF-AB. The experiment in a line: cell-based or functional assay. This is another data set of the same source.
The target in assay [5] is B3. The experiment in a line: SPR, captured mAb, 25 C. As for the experimental part:
(§1) The equilibrium dissociation constants (KD values) for human and mouse PDGF-B binding to purified anti-PDGF-B monoclonal antibodies of this disclosure were determined using a real-time surface plasmon resonance (SPR) biosensor instrument, MASS-1. All binding studies were performed in 10 mM HEPES, 300 mM NaCl, 3 mM EDTA, 1 μg/mL Heparin, and 0.05% v/v Surfactant Tween-20, pH 7.4 (HBS-T) running buffer at 25° C. and 37° C. […] The HCA sensor surface was first derivatized by amine coupling the monoclonal mouse anti-human Fc antibody (GE, #BR100839) and anti-PDGF-B monoclonal antibodies were individually captured. […] Kinetic association (kₐ) and dissociation (kd) rate constants were determined by fitting the real-time binding sensorgrams to a 1:1 binding model with mass transport limitation using Scrubber 2.0c software. Binding dissociation equilibrium constant (KD) and dissociative half-life (t½) for different anti-PDGF-B monoclonal antibodies were calculated from the kinetic rate constants as: […]
On the technique in general: Surface plasmon resonance follows binding to a sensor surface in real time, without labels.

Assay [6] addresses B3. The experiment in a line: SPR, captured mAb, 37 C. The procedure:
as §1

Assay [7] concerns the target B3. Put plainly: SPR (Bia-core), 37 C as headed.
Assay [8] addresses B5. Put plainly: SPR (Bia-core), 37 C as headed.
Assay [9] addresses B3. Put plainly: SPR, 37 C (listed in PK study table).
Assay [10] addresses B5. The experiment in a line: SPR (Bia-core), 37 C as headed; 37 C as headed.
Assay [11] deals with B5. The experiment in a line: SPR (Biacore T200 or MASS-2), mAb captured by anti-human Fc, 25 C. As for the experimental part: (§2) All binding studies were performed in 10 mM HEPES, 300 mM NaCl, and 0.05% v/v Surfactant Tween-20, pH 7.4 (HBS-P) running buffer at 25° C.
(§3) The association rate (kₐ) and dissociation rate (kd) were determined by fitting the real-time binding sensorgrams to a 1:1 binding model with mass transport limitation using Scrubber 2.0c curve-fitting software. Binding dissociation equilibrium constant (KD) and dissociative half-life (t½) were calculated from the kinetic rates as: […]

The target of assay [12] is T2, rat PDGF-BB (rat, UniProt Q05028 74-182).
T2 construct: also called rPDGF-BB
Described as above. The procedure: as §2, §3

Assay [13] deals with T3, mouse PDGF-BB (mouse, UniProt P31240 82-190, limits assumed).
T3 construct: also called mPDGF-BB; mPDGF-B
Put plainly: SPR MASS-1, captured mAb, 37C. As for the experimental part: as §1

The target of assay [14] is B4. Put plainly: SPR 25C, mAb captured on anti-hFc; analyte Monkey PDGF-BB Fc homodimer-mouse Fc (IgG1) tag (Sino Biological). As for the experimental part:
The sample was injected at 25 uL/minute for 3 minutes and the dissociation was monitored for 10 minutes. The kinetics parameters were evaluated by fitting the real time data using 1:1 binding model with mass transport limitation.

For assay [15], the target named is T4, human PDGFRβ on HEK293/SRE-luc/hPDGFRβ cells (human, UniProt P09619 33-1106). The experiment in a line: cell-based or functional assay.
The target of assay [16] is T4, human PDGFRβ on HEK293/SRE-luc/hPDGFRβ …. Put plainly: cell-based or functional assay. This is another data set of the same source.
Assay [17] addresses mfPDGFRβ-ecto/hPDGFRb-cyto (monkey (mf); human, UniProt P09619 554-1106). The experiment in a line: cell-based or functional assay.
Assay [18] concerns the target B5. Put plainly: cell-based or functional assay. This is another data set of the same source.
The target in assay [19] is T1, human PDGF-AB. The experiment in a line: cell-based or functional assay. This is another data set of the same source.
The target of assay [20] is B3. Put plainly: SPR (Bia-core), 37 C as headed. This is another data set of the same source.
For assay [21], the target named is B5. The experiment in a line: SPR (Bia-core), 37 C as headed. This is another data set of the same source.
Assay [22] has as its target B5. Put plainly: SPR (Bia-core), 37 C as headed; 37 C as headed. This is another data set of the same source.
Assay [23] has as its target Cynomolgus monkey PDGF-BB (cynomolgus monkey (Macaca fascicularis), UniProt A0A2K5UX81 82-190). Put plainly: cell-based or functional assay.
The target in assay [24] is T5, human PDGF-AB (human, UniProt P04085 87-211).
T5 construct: also called hPDGF-AB; hPDGF AB
Put plainly: blocking ELISA: 100 pM Biot-PDGF-AB on 1 ug/ml hPDGFRb-mmH. (In general: ELISA stands for enzyme-linked immunosorbent assay.)

As a reminder, the Kd is the free concentration of one partner at which half of the binding sites on the other are occupied at equilibrium, for simple one-to-one binding. The term t½ denotes the time in which the quantity being followed falls by half. A word on the IC50: it is the concentration at which inhibition is half-maximal.

T4 sequence (P09619 33-1106): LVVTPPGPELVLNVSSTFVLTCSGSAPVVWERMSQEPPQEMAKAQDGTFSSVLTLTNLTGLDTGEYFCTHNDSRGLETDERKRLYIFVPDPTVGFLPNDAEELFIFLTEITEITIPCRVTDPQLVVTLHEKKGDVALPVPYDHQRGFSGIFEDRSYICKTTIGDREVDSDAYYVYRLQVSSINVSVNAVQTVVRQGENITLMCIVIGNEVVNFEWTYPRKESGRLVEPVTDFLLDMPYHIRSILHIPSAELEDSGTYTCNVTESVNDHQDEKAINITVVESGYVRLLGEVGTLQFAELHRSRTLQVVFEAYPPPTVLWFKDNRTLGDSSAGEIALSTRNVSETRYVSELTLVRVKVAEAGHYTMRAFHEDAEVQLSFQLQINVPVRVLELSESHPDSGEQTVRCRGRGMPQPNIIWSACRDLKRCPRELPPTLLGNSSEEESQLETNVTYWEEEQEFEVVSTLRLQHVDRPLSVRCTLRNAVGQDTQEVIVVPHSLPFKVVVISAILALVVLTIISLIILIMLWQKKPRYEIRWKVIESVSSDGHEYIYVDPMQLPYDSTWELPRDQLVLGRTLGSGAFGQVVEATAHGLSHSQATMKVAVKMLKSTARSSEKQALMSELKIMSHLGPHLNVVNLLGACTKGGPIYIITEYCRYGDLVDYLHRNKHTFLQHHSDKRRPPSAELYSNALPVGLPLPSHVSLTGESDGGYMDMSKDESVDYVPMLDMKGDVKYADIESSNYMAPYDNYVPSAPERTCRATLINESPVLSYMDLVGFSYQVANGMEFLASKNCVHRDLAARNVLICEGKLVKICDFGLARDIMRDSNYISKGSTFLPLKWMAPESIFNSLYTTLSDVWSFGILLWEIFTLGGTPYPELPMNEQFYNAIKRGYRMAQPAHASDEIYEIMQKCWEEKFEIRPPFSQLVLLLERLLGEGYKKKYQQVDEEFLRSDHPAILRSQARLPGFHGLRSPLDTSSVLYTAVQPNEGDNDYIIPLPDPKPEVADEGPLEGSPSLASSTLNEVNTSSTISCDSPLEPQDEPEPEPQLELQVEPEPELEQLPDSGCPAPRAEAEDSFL
mfPDGFRβ-ecto/hPDGFRb-cyto, sequence (P09619 554-1106): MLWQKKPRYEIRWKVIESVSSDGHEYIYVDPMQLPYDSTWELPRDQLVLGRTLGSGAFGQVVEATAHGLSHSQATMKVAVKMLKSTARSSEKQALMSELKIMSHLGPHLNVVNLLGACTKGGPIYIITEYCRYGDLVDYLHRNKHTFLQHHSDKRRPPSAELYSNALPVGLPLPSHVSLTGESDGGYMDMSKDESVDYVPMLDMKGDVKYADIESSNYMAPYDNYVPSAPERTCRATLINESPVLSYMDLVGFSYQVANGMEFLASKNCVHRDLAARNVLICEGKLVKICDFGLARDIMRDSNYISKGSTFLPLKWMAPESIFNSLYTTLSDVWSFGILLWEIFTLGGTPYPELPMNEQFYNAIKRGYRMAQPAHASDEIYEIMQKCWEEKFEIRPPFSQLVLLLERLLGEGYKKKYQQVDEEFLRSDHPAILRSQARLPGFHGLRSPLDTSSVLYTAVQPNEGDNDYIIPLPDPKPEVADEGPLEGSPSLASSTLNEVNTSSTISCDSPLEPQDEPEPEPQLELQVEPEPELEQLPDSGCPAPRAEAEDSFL

B1: H4H13145P (antibody, human IgG4 S228P, kappa, V domains shown)
VH: QVQLVQSGTEVKKPGASVKVSCKASGYTYGAYAISWVRQAPGQGLEWMGWISAYNGNTNYAQKFQDRVTMTTDTSTNTAYMELRGLKSDDTAVYFCARAWNSFDYWGQGTLVTVSS
VL: not shown
notes: also called REGN13335; anti-PDGF-B antibody 1
B1: the “IC50, SRE-luciferase, 600 pM mPDGFBB” value in assay [1] is 4.5e-10 M. Besides, in assay [2], the “IC50 (head printed IC51), SRE-luciferase, 500 pM mfPDGFBB” value was found to be 3.2e-10 M. In addition, the “A647 Intensity, internalization in PASMC, pre-blocking Ab: NA” value in assay [3] was 2.4e+07. Also, in assay [4], the “A647 Intensity, internalization in NHLF, pre-blocking Ab: NA” value was 1.9e+07. The equilibrium dissociation constant (Kd) in assay [5] is at most 0.0023 nM; in assay [6], 0.000954 nM; in assay [7], 0.000954 nM; in [9], 0.000954 nM; in assay [10], 0.0161 nM; in [11], 0.0161 nM. In [12], this molecule returned a Kd of 0.125 nM. The t1/2 in assay [8] turned out to be 12.8 h. Moreover, the t½ worked out at 12.8 h in [11] and 0.682 h in [12].

B2: H4H13145P (antibody, human IgG4 S228P, kappa, V domains shown)
VH: QVQLVQSGTEVKKPGASVKVSCKASGYTYGAYAISWVRQAPGQGLEWMGWISAYNGNTNYAQKFQDRVTMTTDTSTNTAYMELRGLKSDDTAVYFCARAWNSFDYWGQGTLVTVSS
VL: not shown
notes: also called REGN13335
In assay [13], B2 had an equilibrium dissociation constant (Kd) of 0.000954 nM. In assay [14], the dissociation constant (Kd) amounted to 0.0268 nM and the “t½” value came to 17.8 h.

As for B3, the “EC50 of ligand, SRE-luciferase in HEK293/SRE-luc/hPDGFRβ cells” value in [15] and in assay [16] was 0.93 nM throughout.

In the case of B4, in [17], the “EC50, luciferase in HEK293/SRE-Luc/mfPDGFRβ-ecto/hPDGFRb-cyto cells” value came to 0.167 nM.

On to B5, for which the “EC50 of ligand, SRE-luciferase in HEK293/SRE-luc/hPDGFRβ cells” value in assay [15] and in assay [16] was 0.064 nM each time.

B6: H4H13132P (antibody, human IgG4 S228P, kappa, V domains shown)
VH: QVQLVQSGAEVKKPGSSVKVSCKASGGTFSSYAISWVRQAPGQGLEWMGGIIPIFGTANYAQKFQGRVTITTDESTSTAYMELSSLRSEDTAVYYCAREGYGDYYFGMDVWGQGTTVTVSS
VL: not shown
notes: also called REGN15171; anti-PDGF-B antibody 2
Regarding B6, the “IC50 (head printed IC51), SRE-luciferase, 500 pM mfPDGFBB” value in [18] was determined as 8.9e-09 M. The “(%) Inhibition, calcium flux in HLF cells, 1 nM ligand, Full Time Course” value in assay [19] was determined as 63%. Further, in assay [3], the “A647 Intensity, internalization in PASMC, pre-blocking Ab: NA” value was found to be 772000. Besides, the “A647 Intensity, internalization in NHLF, pre-blocking Ab: NA” value in [4] is 679000. Besides, the Kd in assay [6] was found to be 0.0867 nM; in assay [20], 0.0867 nM; in assay [9], 0.0867 nM; in assay [22], 0.00967 nM; in assay [11] it was 0.00967 nM; in [12] it was 0.103 nM. The molecule further gave a t1/2 in [21] of 4.62 h. Further, the t½ was found to be 4.62 h in [11] and 0.683 h in [12].

B7: H4H13132P (antibody, human IgG4 S228P, kappa, V domains shown)
VH: QVQLVQSGAEVKKPGSSVKVSCKASGGTFSSYAISWVRQAPGQGLEWMGGIIPIFGTANYAQKFQGRVTITTDESTSTAYMELSSLRSEDTAVYYCAREGYGDYYFGMDVWGQGTTVTVSS
VL: not shown
notes: also called REGN15171
Take B7: the “IC50, luciferase in HEK293/SRE-Luc/mfPDGFRβ-ecto/hPDGFRb-cyto cells” value in assay [23] worked out at 0.781 nM. For the same molecule, in assay [13], the Kd was determined as 0.0867 nM. Also, the IC50 in assay [24] was found to be 14 nM. For the same molecule, in assay [14], binding was put at a Kd of 0.0256 nM and the “t½” value was 18.4 h.
